From the RNAGym collection of RNA variant scans (doi:10.1073/pnas.2313332121)

B1: TPR t1 (parent)
chain: GACCAAUCUGCCCUCAGAGCUCGAGAACAUCUUCGGAUGCAGAGGAGGCAGGCUUCGGUGGCGCGAUAGCGCCAACGUCCUCAACCUCCAAUGCAUCCCACCACAUGAUGAUGCCUGAAGAGCCUUGGUUUUUUG

Variants of: B1
Experiment: polymerase ribozyme fitness, log enrichment relative to wild type (log ratio); higher = more active; in vitro selection for triplet polymerase activity
How it was run: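 Input and output libraries were sequenced on Illumina after a single in vitro selection round, run in triplicate on PCR-built, transcribed mutant libraries of each subunit of a heterodimeric triplet polymerase ribozyme. Selection annealed libraries to a biotinylated primer, the partner subunit and triplets, incubated them frozen at −7 °C, then gel-excised extended constructs for streptavidin-bead capture and RT-PCR. Genotypes with ≥10 input reads and ≥1 read per output were kept. Fitness is the logarithm, taken in base 2, of genotype enrichment divided by wild-type enrichment, using inverse-variance-weighted replicate averages.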
In the case of C53G C97A, the “polymerase ribozyme fitness (log ratio)” value is reported as -5.66.
In the case of G52U C72A C85A U106A G110U, the “polymerase ribozyme fitness (log ratio)” value is reported as -3.08.
In the case of G52A C79U, the “polymerase ribozyme fitness (log ratio)” value is reported as -0.581.
For G52A C79A, the “polymerase ribozyme fitness (log ratio)” value was -0.667.
For C53A G63U A74U C102G A103C A111G G117C, the “polymerase ribozyme fitness (log ratio)” value was -6.88.
With G52C C73U G110U the “polymerase ribozyme fitness (log ratio)” value was -2.38.
With G52U A103U the “polymerase ribozyme fitness (log ratio)” value was -6.74.
For G52U U129A, the “polymerase ribozyme fitness (log ratio)” value was -1.63.
For G51U U130A, the “polymerase ribozyme fitness (log ratio)” value was -3.79.
In the case of G52U U92A C104U, the “polymerase ribozyme fitness (log ratio)” value is reported as -4.43.
With G52U G63A G93A the “polymerase ribozyme fitness (log ratio)” value was -1.45.
In the case of G52C G122A, the “polymerase ribozyme fitness (log ratio)” value is reported as -1.3.
With C53A C98U U112G the “polymerase ribozyme fitness (log ratio)” value was -3.36.
For G52A C114G, the “polymerase ribozyme fitness (log ratio)” value was -3.02.
With G52A A74U C80U the “polymerase ribozyme fitness (log ratio)” value was -1.78.
With G52A C102A the “polymerase ribozyme fitness (log ratio)” value was -1.79.
With G52A G69C the “polymerase ribozyme fitness (log ratio)” value was -1.72.
In the case of G52A G69A, the “polymerase ribozyme fitness (log ratio)” value is reported as -3.61.
In the case of G52U U106C A118G, the “polymerase ribozyme fitness (log ratio)” value is reported as -0.754.
In the case of G52U U59C C85U C124U, the “polymerase ribozyme fitness (log ratio)” value is reported as -1.1.
For G52A G61A G127U, the “polymerase ribozyme fitness (log ratio)” value was -1.95.
With G52A G63A C73U U81C C114A the “polymerase ribozyme fitness (log ratio)” value was -7.55.
For C53A U132A, the “polymerase ribozyme fitness (log ratio)” value was -0.786.
For C53G G63C G127C, the “polymerase ribozyme fitness (log ratio)” value was -1.19.
For G51U U112A, the “polymerase ribozyme fitness (log ratio)” value was -3.68.
In the case of C53A U96A U106A G120A, the “polymerase ribozyme fitness (log ratio)” value is reported as 0.0353.
With C53G A119G G128U the “polymerase ribozyme fitness (log ratio)” value was 0.277.
With G52A A74G C79G U96G the “polymerase ribozyme fitness (log ratio)” value was -0.912.
With C53A G63U C82A A83C U96C the “polymerase ribozyme fitness (log ratio)” value was -3.55.
In the case of C53G G71A G93C, the “polymerase ribozyme fitness (log ratio)” value is reported as -1.51.
For G52U U87A, the “polymerase ribozyme fitness (log ratio)” value was -1.25.
With G52U C56A C102A the “polymerase ribozyme fitness (log ratio)” value was -2.74.
In the case of C53G C79U, the “polymerase ribozyme fitness (log ratio)” value is reported as -1.64.
For C53A A111C, the “polymerase ribozyme fitness (log ratio)” value was 0.297.
With C53A C72U U87A G107U the “polymerase ribozyme fitness (log ratio)” value was -4.92.
For G52C C70A G117U G120U, the “polymerase ribozyme fitness (log ratio)” value was -4.71.
With C53A C89U C115A the “polymerase ribozyme fitness (log ratio)” value was -0.188.
In the case of G52C U55G A83C C115U A118G, the “polymerase ribozyme fitness (log ratio)” value is reported as -2.39.
For G52C U54G U87C A100U, the “polymerase ribozyme fitness (log ratio)” value was -1.94.
With G52C C70U C76U U106A the “polymerase ribozyme fitness (log ratio)” value was -2.68.
In the case of G52U C72G A121G, the “polymerase ribozyme fitness (log ratio)” value is reported as 1.49.
For G52A U78A C115A, the “polymerase ribozyme fitness (log ratio)” value was 0.0466.
With C53G A90C G117U the “polymerase ribozyme fitness (log ratio)” value was -3.56.
For C53A G71C C86U, the “polymerase ribozyme fitness (log ratio)” value was -3.57.
With C53A C56G G63C U106C the “polymerase ribozyme fitness (log ratio)” value was -0.653.
In the case of G52C G71U, the “polymerase ribozyme fitness (log ratio)” value is reported as -0.867.
In the case of G52U C72U U78C, the “polymerase ribozyme fitness (log ratio)” value is reported as -0.804.
In the case of G52A G77U G93A G122U, the “polymerase ribozyme fitness (log ratio)” value is reported as -2.45.
With G52C C70U C72U G117U the “polymerase ribozyme fitness (log ratio)” value was -4.23.
With C53G A91U the “polymerase ribozyme fitness (log ratio)” value was -1.68.
With G51U G61U the “polymerase ribozyme fitness (log ratio)” value was -3.14.
With C53A C70A A75U C79A C82G U112C the “polymerase ribozyme fitness (log ratio)” value was -3.2.
For G52C C53G A68G G77A U81A C98U, the “polymerase ribozyme fitness (log ratio)” value was -5.4.
With G51U U54G C62A G113U the “polymerase ribozyme fitness (log ratio)” value was -7.8.
In the case of G52A G57C C72U U116A U129C, the “polymerase ribozyme fitness (log ratio)” value is reported as -4.37.
With C53A A66U the “polymerase ribozyme fitness (log ratio)” value was -1.07.
For G52U U126G, the “polymerase ribozyme fitness (log ratio)” value was -2.79.
For C53A C56U C72G A111C, the “polymerase ribozyme fitness (log ratio)” value was -1.38.
In the case of G52A G122A, the “polymerase ribozyme fitness (log ratio)” value is reported as -0.494.
For G52U U112G, the “polymerase ribozyme fitness (log ratio)” value was -0.37.
In the case of G51U U109A G128U, the “polymerase ribozyme fitness (log ratio)” value is reported as -5.92.
With G52U A84C G93C the “polymerase ribozyme fitness (log ratio)” value was -2.23.
For G52U C70U G113U, the “polymerase ribozyme fitness (log ratio)” value was -5.82.
For G52U G120U, the “polymerase ribozyme fitness (log ratio)” value was -0.714.
For G52A C53A, the “polymerase ribozyme fitness (log ratio)” value was -0.436.
For G52A C53U, the “polymerase ribozyme fitness (log ratio)” value was -0.621.
With G52U C56U A84U the “polymerase ribozyme fitness (log ratio)” value was -1.37.
With G52C A84G U87C A111G the “polymerase ribozyme fitness (log ratio)” value was -2.78.
With C53G C70G C115G the “polymerase ribozyme fitness (log ratio)” value was -3.49.
In the case of C53G C124A G127A, the “polymerase ribozyme fitness (log ratio)” value is reported as 0.953.
In the case of G52C G60A U81A A83U, the “polymerase ribozyme fitness (log ratio)” value is reported as -5.15.
For G52U C64U U132A, the “polymerase ribozyme fitness (log ratio)” value was -1.1.
With C53A C86U G128U the “polymerase ribozyme fitness (log ratio)” value was -1.61.
In the case of G52A C70A U92A G93C A105U U112A C115A U130C, the “polymerase ribozyme fitness (log ratio)” value is reported as -6.48.
For C53G C97A A119U C123U, the “polymerase ribozyme fitness (log ratio)” value was -4.34.
In the case of G52C U78C G117U, the “polymerase ribozyme fitness (log ratio)” value is reported as -2.77.
In the case of G52C U96C G110U, the “polymerase ribozyme fitness (log ratio)” value is reported as -1.98.
With C53G C56G C73A A84C the “polymerase ribozyme fitness (log ratio)” value was -2.01.
For G52C C114U, the “polymerase ribozyme fitness (log ratio)” value was -3.57.
With C53A C104A the “polymerase ribozyme fitness (log ratio)” value was -1.8.
For C53A C79U C86U, the “polymerase ribozyme fitness (log ratio)” value was -0.479.
For G52A C56U G93A, the “polymerase ribozyme fitness (log ratio)” value was -0.382.
With G51U G93C the “polymerase ribozyme fitness (log ratio)” value was -4.26.
For C53A G57A G93C, the “polymerase ribozyme fitness (log ratio)” value was -0.961.
